Results taken from article PMC9860306.

Legend:
[1] = molecular target: rituximab, galactosylated afucosylated (G2) glycoform (human); assay: SPR; KD2 (second site)
[2] = molecular target: rituximab, galactosylated fucosylated (G2F) glycoform (human); assay: SPR; KD2 (second site)
[3] = molecular target: rituximab, galactosylated afucosylated (G2) glycoform (human); assay: SPR; KD1
[4] = molecular target: rituximab, galactosylated fucosylated (G2F) glycoform (human); assay: SPR; KD1

rituximab, galactosylated afucosylated (G2) glycoform (human), sequence (main, as listed by the source, chain 1 of 2): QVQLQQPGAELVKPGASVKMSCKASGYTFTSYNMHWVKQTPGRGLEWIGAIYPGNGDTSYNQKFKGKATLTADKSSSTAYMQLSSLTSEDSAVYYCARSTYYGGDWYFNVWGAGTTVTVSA
rituximab, galactosylated afucosylated (G2) glycoform (human), sequence (partner, as listed by the source, chain 2 of 2): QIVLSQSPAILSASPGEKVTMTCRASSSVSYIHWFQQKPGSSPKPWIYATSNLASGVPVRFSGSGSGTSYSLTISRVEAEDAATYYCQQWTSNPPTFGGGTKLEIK
rituximab, galactosylated fucosylated (G2F) glycoform (human), sequence (main, as listed by the source, chain 1 of 2): as the sequence (main, as listed by the source, chain 1 of 2) above
rituximab, galactosylated fucosylated (G2F) glycoform (human), sequence (partner, as listed by the source, chain 2 of 2): as the sequence (partner, as listed by the source, chain 2 of 2) above

Kd [1]: 2.3 nM | Kd [2]: 2.29 nM | Kd [3]: 29.9 nM | Kd [4]: 55.2 nM
Substance: FcγRIIIA(V) tetramer
